Measurements reported in publication PMC4200520.

Target: XMAP-Ct, C-terminal coiled-coil fragment of XMAP215 (Xenopus) (UniProt Q9PT63)
Assay: SPR
Settings: domain or fragment

TD5, TACC domain fragment of XTACC3 with a deletion of helix α1, sequence (Q9PTG8 whole entry, stated change not applied, the tested form may be a part): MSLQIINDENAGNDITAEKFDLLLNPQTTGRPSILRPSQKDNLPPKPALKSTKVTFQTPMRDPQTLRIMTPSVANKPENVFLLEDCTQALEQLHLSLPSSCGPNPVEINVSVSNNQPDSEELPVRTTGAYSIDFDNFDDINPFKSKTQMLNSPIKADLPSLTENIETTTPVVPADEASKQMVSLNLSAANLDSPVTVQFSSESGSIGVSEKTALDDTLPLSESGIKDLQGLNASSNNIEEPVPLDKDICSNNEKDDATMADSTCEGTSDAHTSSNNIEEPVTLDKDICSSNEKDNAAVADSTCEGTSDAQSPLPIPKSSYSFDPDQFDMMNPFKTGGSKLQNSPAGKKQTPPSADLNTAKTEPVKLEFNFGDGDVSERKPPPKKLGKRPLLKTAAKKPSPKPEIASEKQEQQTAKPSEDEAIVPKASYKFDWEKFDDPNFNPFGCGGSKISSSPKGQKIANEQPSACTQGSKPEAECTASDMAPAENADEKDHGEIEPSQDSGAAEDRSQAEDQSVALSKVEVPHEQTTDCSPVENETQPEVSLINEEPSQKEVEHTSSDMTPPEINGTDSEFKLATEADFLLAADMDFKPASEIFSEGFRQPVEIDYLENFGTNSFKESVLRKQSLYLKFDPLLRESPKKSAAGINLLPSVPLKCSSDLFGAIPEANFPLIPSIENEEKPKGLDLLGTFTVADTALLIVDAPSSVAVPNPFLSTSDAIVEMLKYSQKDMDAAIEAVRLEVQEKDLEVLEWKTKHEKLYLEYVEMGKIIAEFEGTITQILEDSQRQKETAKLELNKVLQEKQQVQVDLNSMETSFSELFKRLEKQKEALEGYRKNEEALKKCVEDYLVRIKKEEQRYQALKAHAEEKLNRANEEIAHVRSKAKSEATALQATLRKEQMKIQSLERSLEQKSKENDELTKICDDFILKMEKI
XMAP-Ct, C-terminal coiled-coil fragment of XMAP215 (Xenopus), sequence (Q9PT63 2002-2065): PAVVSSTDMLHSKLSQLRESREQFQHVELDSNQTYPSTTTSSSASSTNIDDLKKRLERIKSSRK

With “TD5, TACC domain fragment of XTACC3 with a deletion of helix α1” the Kd was 4.3 µM.
